# Reference: paper PMC12707363
# Legend:
# [1] = SEC; analytical SEC (AdvanceBio SEC 200 Å) of the purified Int^N precursor alone; each protein diluted to 10 µM and incubated for 24 h at 15 °C before the run; monomer against soluble high-MW aggregates eluting at the void volume
# [2] = SEC; SEC of the Int^N precursors with the native single cysteine (Figure S3c), no reducing agent; conditions not shown
Substance,percent soluble high-MW aggregates [1] [%],percent aggregated species [2] [%]
MBP‐CP21^N(C43S)‐H6,77,
MBP‐CP21^N‐H6,,90
MBP‐GOM^N(C57S)‐H6,76,
MBP‐GOM^N‐H6,,78
